Source: the supplement of paper PMC12764529
± gives the half width of the 95% confidence interval.

Columns and labels:
[1] = folding stability dG unfold from trypsin proteolysis; higher = more stable
How it was run: (§1)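 K50 was inferred by Bayesian fitting of sequencing counts obtained after protease digestion of designed mini-proteins. Unfolding free energy was derived by comparison with a sequence-predicted unfolded-state K50 and a shared folded-state K50, for each protease or both combined. The mini-proteins were under 80 residues, had no cysteine, were carried in a PA-tagged cDNA display construct, and were kept only if AlphaFold2 dimer inter-PAE exceeded 15.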

[2] = folding stability dG unfold from chymotrypsin proteolysis; higher = more stable
How it was run: as §1

[3] = folding stability dG unfold (combined trypsin and chymotrypsin); higher = more stable
How it was run: as §1

Sequence | folding stability dG unfold [1] [kcal/mol] | folding stability dG unfold [2] [kcal/mol] | folding stability dG unfold [3] [kcal/mol]
SAGGSAGGSNDPPEIKIDYEYNPNNGMYTANITIPNGRKLKITFPGDDAEDAEEQAKNLIEKLSAGGSAGGS [r12_339_TrROS] | 0.539 ± 0.089 | 1.57 ± 0.091 | 1.28 ± 0.38
SAGGSAGGSAGMPTLKIKVLVRNEETGEWQEVEIELPEGMTLEELLAALPPEQVERVEPVSAGGSAGGSAGG [r11_386_TrROS_Hall] | 2.42 ± 0.15 | 3.07 ± 0.059 | 2.85 ± 0.073
SAGIEIRIEAYMPWEEARDQVKEIARWLMSMFPGFKVDIDVDHEPVPNNMWVATVTIKIEPLPPGQPIFSAG [r5_936_TrROS] | 3.83 ± 0.1 | 4.79 ± 0.066 | 4.56 ± 0.12
SAGGSAGGSAGGNIEIFYFPDGYVVITIWDPDEGWRIVITAKIDPGDGKIKEMDIMPVPSAGGSAGGSAGGS [r10_613_TrROS] | 2.67 ± 0.18 | 2.91 ± 0.13 | 2.85 ± 0.19
SAGGPGWRTINIPVWFKPGDSLDEIEEKARELVDPIADRNGLDIEVNIEVERDPDGYYRFNVQITVPSAGGS [r16_279_TrROS] | 1.27 ± 0.097 | 2.34 ± 0.071 | 1.96 ± 0.13
SAGGSAGGSAGGMFYIKNEKGEVFPFTSLEEFLKQLEEKTGKPVKLNNIVIYPAAPHSLSAGGSAGGSAGGS [r10_62_TrMRF] | 1.04 ± 0.042 | 1.81 ± 0.15 | 1.7 ± 0.27
SAGGMVIKVTDAEEAIERVIELVKSLGPEAVIKEITVTNTGTVVKVEPGKKGTVSPDSTITVNIEKGSAGGS [r16_267_JUSTAS] | -0.0389 ± 0.066 | 0.938 ± 0.075 | 0.662 ± 0.14
SAGGSARIEPVGDYLVIEIPFRYPDGMEWYIEIVINPEEGKIPVDQYPPGDGEPVGEKTLPADEVKSAGGSA [r15_671_TrROS] | 0.507 ± 0.14 | 2.27 ± 0.11 | 1.52 ± 0.23
SAGGMPKDAPTTDLTITEIVTEPDPNSDTYIARVTTRLPDGTEIVYTLPIPADTTEEEVVERAKELLSSAGG [r13_578_JUSTAS] | 1.78 ± 0.035 | 2.307 ± 0.018 | 2.12 ± 0.077
SAGGKKKITIEVEKKEDGKEVKVKIKVDGKEIEITFPENMSKEELLEAAKKLAEENNIEIEEVEIYPSAGGS [r16_753_TrROS_Hall] | 1.24 ± 0.1 | 1.54 ± 0.091 | 1.53 ± 0.15
MTVELETTDIEELLARIEEAAAAGKNVTVTAKPEEFEKIRAEGFKIDEILEVKPVPGDDTVVTLINISPEGS [r1_173_JUSTAS] | 1.11 ± 0.038 | 0.699 ± 0.083 | 0.897 ± 0.085
SAGGSAGGSAGGKAKIEMESETIPFKNDDGEKYYIQIMRFEVEVGGKKVTATAISIMPLDSAGGSAGGSAGG [r7_248_TrROS] | 2.22 ± 0.22 | 3.53 ± 0.16 | 2.98 ± 0.4
SMTVKIELEVEIEVPETPEELRKLAEALAEELGIEEVKVVEIEYDPETKTVRVKVEITVKLPPPPPEEEESA [r9_918_TrROS_Hall] | 3.11 ± 0.14 | 2.89 ± 0.25 | 3.13 ± 0.21
SAMTIKIEVINEKGEKIEITIPVKKEDLEKLKEEIEKELKKLAEEKGEKVKVEIVEVDENGYLKIRVYKSAG [r14_622_TrROS_Hall] | 2.75 ± 0.2 | 2.54 ± 0.059 | 2.73 ± 0.21
SAGGSAGGSAGRLLLEGLGADEVLRLEPEPDRVPIVVRHRDGGRDVVIEMDFEEAVRAILSAGGSAGGSAGG [r11_630_TrMRF] | -1.22 ± 0.67 | -0.538 ± 0.28 | -0.771 ± 0.42
SAMPVLVVIKRTVVLPRPGEELAKYEDPDGKVRRRVVVETLVVEVNPEDLPELVEFFKSLGIDEISVFGSAG [r14_509_TrMRF] | 2.18 ± 0.039 | 2.22 ± 0.031 | 2.13 ± 0.11
SAGGSAGGSAKSFWIDSPEQAEELADELQQKGPNVEPTVERDDNNGWYQLEIPNGKDIVIWGSAGGSAGGSA [r18_154_TrROS] | -0.417 ± 0.2 | 0.73 ± 0.19 | 0.272 ± 0.24
SAGGKKVIEIEITVKPGETITITVPPGARIEIVDLDTGEVREIEIEPGETITLTLPPGSTLLIRIYEPSAGG [r19_78_TrROS_Hall] | 3.66 ± 0.25 | 4.04 ± 0.11 | 4.01 ± 0.23
SAGGSAGGSAGMSSVAPITTPDGKVAESVTVTEETLPNGEVVTKITTTLPDGTVVTTTLESAGGSAGGSAGG [r11_810_JUSTAS] | 1.59 ± 0.066 | 0.997 ± 0.051 | 1.3 ± 0.1
SAGDWVPIEFTIFFPDPNMTIEEIADSALMNLGLPPEDVTVKIKNIHEQPDPDGRPYYHIEVKIYIPDNSAG [r5_528_TrROS] | 1.7 ± 0.13 | 3.17 ± 0.13 | 2.75 ± 0.23
SAMLSPAEIKRPRLLEIIETIKKLGNFSVDIKRLPGDGDVKVKIELDPNKIEEAAKITGIPLSEIKKLVSAG [r14_688_JUSTAS] | 0.923 ± 0.15 | 0.748 ± 0.1 | 0.673 ± 0.31

Sequence | folding stability dG unfold [1] [kcal/mol] | folding stability dG unfold [2] [kcal/mol] | folding stability dG unfold [3] [kcal/mol]
SAGGSAGGMLTTQETSSDPATNLTTTTTTLTEKDASGNLVPLETTVTTTTSPPAPSTTAPTYAASAGGSAGG [r6_901_JUSTAS] | 1.89 ± 0.061 | 0.432 ± 0.024 | 1.29 ± 0.089
SAGGSAGGSAGGNVIRVEKEPNTVVLYFPDGTYRVVEVEKKDESVKVLSEKVEPIVPGLLSAGGSAGGSAGG [r7_443_JUSTAS] | 1.12 ± 0.024 | -0.177 ± 0.2 | 0.702 ± 0.059
PDDVYVMFEIEPTNDGIKIPIKVRVPGKPIAEVEVPVDPDDGKIKIMVKFPSPEALDEAEDLLKELGIKPTS [r1_455_TrROS] | 0.319 ± 0.11 | 0.42 ± 0.12 | 0.537 ± 0.21
SAGGSAGGSAPFQIEDIEVEYHRMPPGMPYYPVRARLPGTGREVEIHMPGMPVEDVLDRIIDSAGGSAGGSA [r18_345_TrROS] | -0.446 ± 0.13 | -0.0225 ± 0.088 | -0.141 ± 0.061
SAGGSVEEIAEELAKQPSYTKVTVTLFVDPDGTARVVITDVENGKTYTVPLPPAATPVGTLTLPVESAGGSA [r2_74_JUSTAS] | 1.56 ± 0.026 | 1.68 ± 0.046 | 1.63 ± 0.083
SAMNLKTFKIEVPDGKIFTIPPNYKAEIVEYDPEKGVVTIKLTAYETNPLKEVEKKEFSFKFKFLEEFPSAG [r14_927_TrMRF] | 1.181 ± 0.011 | 1.62 ± 0.082 | 1.46 ± 0.086
SAGGSAGGSAGMVLVFDKKTGELYLYDKNGKLVAKFKVEGAEEVVVLVFDPDTNELKLVPSAGGSAGGSAGG [r17_413_TrROS_Hall] | 2.49 ± 0.049 | 3.68 ± 0.037 | 3.4 ± 0.065
SAGGKIEEILKKLNLKPGEKAKIKDIKIEVKTVTVTEKKYKNGKLVEEKEKTVTVVKIEIKIELEKPKSAGG [r13_482_TrROS_Hall] | 2.6 ± 0.18 | 3.97 ± 0.18 | 3.22 ± 0.26
KKKTIEIIFPENNLIIKIEVDEETGKELTEEEIKKLLEELFPGKDIEKMSIEEIAKRLASLPGVKKVEIYPS [r1_463_TrROS_Hall] | 3.19 ± 0.09 | 1.57 ± 0.07 | 2.46 ± 0.1
SAGGSAGGSAGGVPPESVLLSEEKVGGKTVEIVRDPATGKLYRVTKVPGSDSIEVEELGLSAGGSAGGSAGG [r7_179_JUSTAS] | 2.2 ± 0.093 | 2.549 ± 0.013 | 2.43 ± 0.092
SAGGSAGGSAKKKVKIKLEFDKETNTLRIEVEDEDTGEKTEIEITIKLEPPPPPPLPEELKKSAGGSAGGSA [r18_361_TrROS_Hall] | 1.72 ± 0.18 | 1.42 ± 0.22 | 1.73 ± 0.61
SAGGSAGGSAGGSVPSDVTVSILEIEPKEDKYLVLLRVPENGTLIEREFESLEEAKELLSAGGSAGGSAGGS [r10_1038_JUSTAS] | 1.16 ± 0.033 | -0.51 ± 0.21 | 0.645 ± 0.088
SAGGSAGGSAQWVIRIKMPNGSTRELRIPGMTPEKAREIAKELADQNNIKDVDIYPPGQKISAGGSAGGSAG [r3_160_TrROS] | 0.981 ± 0.041 | 0.393 ± 0.17 | 0.727 ± 0.1
SAGGSAAPPVTVEVLPDGRIVITRGDAVASSVTPVPPDATITATFPATGETVTITRRAPEVTVTPASAGGSA [r15_235_JUSTAS] | -0.616 ± 0.29 | 1.19 ± 0.017 | 0.835 ± 0.097
SAGGSAGGSAGPTYKIKIYFEDTGVEAEVEINEDGSLTITVPKELLPPGAKVKVEIVKVPSAGGSAGGSAGG [r17_392_TrROS_Hall] | 1.28 ± 0.057 | 1.66 ± 0.098 | 1.57 ± 0.26
SAGGSAGGSAGPPDFQIYVDIETQRNPGNGRYYVTMKIYIGNKPIVEITIPAGEPLKIKFSAGGSAGGSAGG [r17_281_TrROS] | 2.66 ± 0.12 | 3.9 ± 0.045 | 3.4 ± 0.14
SAPPNVWVSRTDPATGAVHAEDIPFPDGATAETVPDPATGTVAQSSDGPPAVLEEVRAALPPDASIEPASAG [r14_252_JUSTAS] | -0.555 ± 0.15 | -0.245 ± 0.42 | -0.175 ± 0.2
SAGGTAEEIAETIAEKFSKKNNNPNVRITVEKEPDSLRIDITFPNNGHEIEIEFEDGGIRKIEWEPYSAGGS [r16_397_TrROS] | 0.276 ± 0.27 | -0.251 ± 0.85 | -0.269 ± 0.94
SAGMVIVIDKKKKKIYIFAPSKEMAEKIAKELNLKDVKVYEKGTSIEELLKKHPDVEKVIVLPAEELKSAGG [r19_270_TrROS_Hall] | 1.45 ± 0.049 | 2.87 ± 0.056 | 2.65 ± 0.27
SAGGSAGGSAGMIVVKSKEEIEALKKAGYEIEVKEVTVYDPKTGKKKDKFLVIEIKPKKKSAGGSAGGSAGG [r11_168_TrROS_Hall] | 1.25 ± 0.15 | 1.28 ± 0.06 | 1.29 ± 0.17
